Reference: PMC3034952 (Enzyme Research, 2011)

How the values were obtained:
[1] = molecular target: T1, AtPDC E1α G297D mutant, H6-tagged (Arabidopsis thaliana, UniProt P52901 18-389, G297D); test: SEC; purified recombinant AtPDC E1 on a Superose 12 column in 50 mM TES-NaOH, pH 7.4, 50 mM NaCl, 0.1 mM TPP, 0.2 mM MgCl2; fractions analysed by SDS-PAGE and immunoblotting; conditions: both partners purified
T1 sequence (looked up): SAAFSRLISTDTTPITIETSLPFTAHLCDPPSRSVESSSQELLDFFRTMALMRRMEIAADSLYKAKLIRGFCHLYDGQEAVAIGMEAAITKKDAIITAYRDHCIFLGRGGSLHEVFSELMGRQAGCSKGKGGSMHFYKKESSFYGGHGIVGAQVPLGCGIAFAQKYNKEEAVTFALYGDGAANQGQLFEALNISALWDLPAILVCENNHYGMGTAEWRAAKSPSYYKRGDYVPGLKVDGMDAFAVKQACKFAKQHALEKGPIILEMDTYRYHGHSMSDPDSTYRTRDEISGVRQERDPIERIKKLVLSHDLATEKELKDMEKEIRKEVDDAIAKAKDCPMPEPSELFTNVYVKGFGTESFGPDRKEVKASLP

[2] = molecular target: T2, AtPDC E1α D295L mutant, H6-tagged (Arabidopsis thaliana, UniProt P52901 18-389, D295L); test: as above; conditions: both partners purified
T2 sequence (looked up): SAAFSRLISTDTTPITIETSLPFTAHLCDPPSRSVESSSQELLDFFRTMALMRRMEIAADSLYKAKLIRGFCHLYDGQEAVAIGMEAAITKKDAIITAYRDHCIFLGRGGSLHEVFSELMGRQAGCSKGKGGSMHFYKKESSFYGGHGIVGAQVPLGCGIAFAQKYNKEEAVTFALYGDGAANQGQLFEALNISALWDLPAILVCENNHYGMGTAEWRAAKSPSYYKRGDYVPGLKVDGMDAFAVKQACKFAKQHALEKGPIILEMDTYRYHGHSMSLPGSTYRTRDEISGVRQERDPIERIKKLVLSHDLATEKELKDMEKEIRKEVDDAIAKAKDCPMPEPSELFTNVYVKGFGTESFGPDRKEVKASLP

[3] = molecular target: T3, AtPDC E1α S292D mutant, H6-tagged (Arabidopsis thaliana, UniProt P52901 18-389, S292D); test: as above; conditions: both partners purified
T3 sequence (looked up): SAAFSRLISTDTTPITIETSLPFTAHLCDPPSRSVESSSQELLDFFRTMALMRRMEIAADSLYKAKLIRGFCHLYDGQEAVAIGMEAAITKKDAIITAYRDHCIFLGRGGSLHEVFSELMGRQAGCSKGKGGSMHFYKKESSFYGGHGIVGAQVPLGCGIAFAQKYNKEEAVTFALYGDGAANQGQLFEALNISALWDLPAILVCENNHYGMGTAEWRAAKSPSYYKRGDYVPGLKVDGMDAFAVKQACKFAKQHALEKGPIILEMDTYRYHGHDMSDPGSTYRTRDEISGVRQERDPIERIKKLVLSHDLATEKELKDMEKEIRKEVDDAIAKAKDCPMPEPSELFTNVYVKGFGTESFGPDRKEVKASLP

[4] = molecular target: T4, AtPDC E1α D295A mutant, H6-tagged (Arabidopsis thaliana, UniProt P52901 18-389, D295A); test: as above; conditions: both partners purified
T4 sequence (looked up): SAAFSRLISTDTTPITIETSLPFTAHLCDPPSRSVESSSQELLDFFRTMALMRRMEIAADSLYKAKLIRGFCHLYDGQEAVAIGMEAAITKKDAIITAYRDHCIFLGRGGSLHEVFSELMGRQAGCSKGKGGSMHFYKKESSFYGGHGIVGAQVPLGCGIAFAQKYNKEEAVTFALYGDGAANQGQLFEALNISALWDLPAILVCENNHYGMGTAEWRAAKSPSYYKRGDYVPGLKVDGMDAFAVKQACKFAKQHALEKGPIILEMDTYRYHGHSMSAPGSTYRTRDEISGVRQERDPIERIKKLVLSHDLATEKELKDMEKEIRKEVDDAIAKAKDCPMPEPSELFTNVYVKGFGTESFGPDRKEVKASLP

[5] = molecular target: T5, Arabidopsis thaliana mitochondrial pyruvate dehydrogenase E1α subunit (AtPDC E1α), wild type, H6-tagged (Arabidopsis thaliana, UniProt P52901 18-389); test: pull-down; H6-E1α and FLAG-E1β coexpressed in E. coli; soluble fraction on a HiTrap chelating column charged with NiSO4 (immobilized metal affinity chromatography); E1α detected with monoclonal anti-E1α, E1β with anti-FLAG by immunoblot; conditions: partners not purified
T5 sequence (looked up): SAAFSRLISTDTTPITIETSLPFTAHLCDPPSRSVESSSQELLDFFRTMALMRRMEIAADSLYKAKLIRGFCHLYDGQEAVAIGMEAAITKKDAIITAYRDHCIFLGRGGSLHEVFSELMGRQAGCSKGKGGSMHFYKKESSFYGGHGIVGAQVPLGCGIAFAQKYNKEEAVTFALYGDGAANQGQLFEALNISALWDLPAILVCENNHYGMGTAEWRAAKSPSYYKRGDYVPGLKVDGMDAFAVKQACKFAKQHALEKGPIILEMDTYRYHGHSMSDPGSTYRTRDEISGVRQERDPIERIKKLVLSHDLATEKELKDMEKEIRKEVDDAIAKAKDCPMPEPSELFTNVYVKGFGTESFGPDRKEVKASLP

Measured: binding result

B1: Arabidopsis thaliana mitochondrial pyruvate dehydrogenase E1β subunit (AtPDC E1β), FLAG-tagged (enzyme, UniProt Q38799 30-363, looked up)
chain: AAGAKEMTVRDALNSAIDEEMSADPKVFVMGEEVGQYQGAYKITKGLLEKYGPERVYDTPITEAGFTGIGVGAAYAGLKPVVEFMTFNFSMQAIDHIINSAAKSNYMSAGQINVPIVFRGPNGAAAGVGAQHSQCYAAWYASVPGLKVLAPYSAEDARGLLKAAIRDPDPVVFLENELLYGESFPISEEALDSSFCLPIGKAKIEREGKDVTIVTFSKMVGFALKAAEKLAEEGISAEVINLRSIRPLDRATINASVRKTSRLVTVEEGFPQHGVCAEICASVVEESFSYLDAPVERIAGADVPMPYAANLERLALPQIEDIVRASKRACYRSK
binds: [1] | [2] | [3] | [4] | [5]
